The results in this text go back to the Immune Epitope Database (IEDB).

pKd: −log10 of the molar value.

One assay addresses HLA-B*08:01. The experiment in a line: IEDB peptide-MHC binding, purified MHC/competitive/radioactivity; filed as Kd, often an IC50 or EC50 that approximates it; ≥ and ≤ were set here for values at or beyond the usual limits of such assays.
The target of assay [1] is HLA-A*02:01. The experiment in a line: IEDB peptide-MHC binding, purified MHC/direct/fluorescence; filed as Kd, often an IC50 or EC50 that approximates it; ≥ and ≤ were set here for values at or beyond the usual limits of such assays.
For a further assay, the target named is HLA-A*69:01. The assay is described as above.
For the next assay, the target named is HLA-A*02:03. The experiment in a line: IEDB peptide-MHC binding, purified MHC/competitive/radioactivity; filed as Kd, often an IC50 or EC50 that approximates it; ≥ and ≤ were set here for values at or beyond the usual limits of such assays. Conditions: source organism: Dengue virus 4 Philippines/H241/1956.
Another assay concerns the target HLA-A*32:01. The description is as above.
Assay [2] has as its target HLA-A*02:01. The experiment in a line: IEDB peptide-MHC binding, purified MHC/competitive/fluorescence; filed as Kd, often an IC50 or EC50 that approximates it; ≥ and ≤ were set here for values at or beyond the usual limits of such assays.
Assay [3] has as its target HLA-A*03:01. Put plainly: IEDB peptide-MHC binding, purified MHC/competitive/radioactivity; filed as Kd, often an IC50 or EC50 that approximates it; ≥ and ≤ were set here for values at or beyond the usual limits of such assays. As to conditions: source organism: Dengue virus 4 Philippines/H241/1956.
The target in assay [4] is HLA-A*11:01. The assay is described as above. Conditions: source organism: Dengue virus 4 Philippines/H241/1956.
The target in assay [5] is HLA-A*03:01. The experiment in a line: IEDB peptide-MHC binding, purified MHC/direct/fluorescence; filed as Kd, often an IC50 or EC50 that approximates it; ≥ and ≤ were set here for values at or beyond the usual limits of such assays. Conditions: source organism: Haemophilus influenzae.
Assay [6] concerns the target HLA-A*11:01. The description is as above. Conditions: source organism: Haemophilus influenzae.
For another assay, the target named is HLA-A*31:01. The assay is described as above. Conditions: source organism: Haemophilus influenzae.
In another assay the target is HLA-B*15:01. The assay is described as above. As to conditions: source organism: Haemophilus influenzae.
The target of another assay is HLA-B*58:01. The assay is described as above. As to conditions: source organism: Haemophilus influenzae.
A further assay addresses HLA-A*01:01. Put plainly: IEDB peptide-MHC binding, purified MHC/competitive/radioactivity; filed as Kd, often an IC50 or EC50 that approximates it; ≥ and ≤ were set here for values at or beyond the usual limits of such assays.
The next assay has as its target HLA-A*26:01. Described as above.
The target of a further assay is HLA-A*29:02. The assay is described as above.
The next assay has as its target HLA-A*30:01. The description is as above.
A further assay deals with HLA-A*30:02. The description is as above.
The target of another assay is HLA-A*23:01. The description is as above.
Another assay addresses HLA-A*24:02. Described as above.
Setting [7] is: source organism: Dengue virus 2 Jamaica/1409/1983.
Setting [8] is: source organism: Vaccinia virus WR.
Setting [9] is: source organism: Giardia lamblia ATCC 50803.
[10] abbreviates: source organism: Dengue virus 4 Philippines/H241/1956.
Where [11] appears, read: source organism: Influenza A virus H3N2.
Setting [12] is: source organism: Pseudomonas aeruginosa.
[13] abbreviates: source organism: Dengue virus 1 Brazil/97-11/1997.
Setting [14] is: source organism: Lymphocytic choriomeningitis virus (strain WE).
The mark [15] stands for this setting: source organism: Mammarenavirus machupoense.
The mark [16] stands for this setting: source organism: Mammarenavirus brazilense.
Where [17] appears, read: source organism: SARS coronavirus Tor2.
Where [18] appears, read: source organism: Lymphocytic choriomeningitis virus (strain Armstrong).

On to IGMNSRSTSL, for which the pKd in the assay with HLA-B*08:01 (setting [7]) was 6.97.

For NLIIHTAAL, the pKd with HLA-B*08:01 (setting [8]) is 8.81.

Regarding FLIGVYQQY, the pKd with HLA-A*02:01 [1] (setting [9]) and with HLA-A*69:01 (setting [9]) was not above 4.70 in each case.

Consider ALNELPESL, for which the pKd was 7.03 in the assay with HLA-A*02:03 and 5.85 with HLA-A*32:01 (setting [10]).

In turn, FTFKRTSGSSV gave a pKd with HLA-A*02:01 [2] (setting [11]) of 6.03.

Take MTLWYMWQVK: the pKd with HLA-A*03:01 [3] is 8.11; with HLA-A*11:01 [4], 8.19; in the assay with HLA-A*32:01 (setting [10]), 6.03.

RVMVSPLAV showed a pKd with HLA-A*02:01 [2] (setting [11]) of 9.05.

In the case of RIIMLNFSI, the pKd in the assay with HLA-A*32:01 (source organism: Vaccinia virus Copenhagen) was not above 4.11.

For the sequence DMYDQQLSV, the pKd is 6.58 in the assay with HLA-A*02:01 [1] (setting [12]) and 7.50 in the assay with HLA-A*69:01 (setting [12]).

Take ETNDLVTNV: the pKd with HLA-A*02:01 [2] (source organism: Variola virus) was 5.49.

In the case of TPMMRHTIE, the pKd in the assay with HLA-B*08:01 (setting [13]) is 8.14.

Regarding RTISESNTI, the pKd in the assay with HLA-A*32:01 (setting [8]) is 6.02.

Take EQMQRKHGGM: the pKd with HLA-B*08:01 (setting [13]) was 7.07.

In the case of LAIPPTAGVL, the pKd with HLA-B*08:01 (source organism: Dengue virus 3 Martinique/1243/1999) was 4.92.

As to RLFFIDWEY, the pKd in the assay with HLA-A*03:01 [5] is 5.97; with HLA-A*11:01 [6], 5.28; with HLA-A*31:01, 6.04; with HLA-B*15:01 it was 6.53; in the assay with HLA-B*58:01 it was 6.72.

Turning to FKGKTVWFVP, the pKd in the assay with HLA-A*32:01 (setting [7]) was not above 4.16.

Take KLLRRPFSL: the pKd in the assay with HLA-B*08:01 (setting [8]) was 9.44.

As for LTDNDDILM, the pKd in the assay with HLA-A*01:01 (setting [14]) is 7.67; with HLA-A*26:01 (setting [14]) it was not above 4.32; with HLA-A*29:02 (setting [14]) it was 5.04; with HLA-A*30:01 (setting [14]) it was 4.72; with HLA-A*30:02 (setting [14]) it was 6.23; in the assay with HLA-A*32:01 (setting [14]), 4.90.

As to RAEVSLHEV, the pKd is not above 4.18 with HLA-A*01:01 (setting [15]); not above 4.11 with HLA-A*23:01 (setting [15]); not above 4.11 with HLA-A*24:02 (setting [15]); not above 4.11 with HLA-A*26:01 (setting [15]); not above 4.10 with HLA-A*29:02 (setting [15]); not above 4.39 in the assay with HLA-A*30:02 (setting [15]).

Take ELINKFVEL: in the assay with HLA-B*08:01 (setting [8]), the pKd was 5.98.

For the sequence GSDDIRRLV, the pKd with HLA-A*01:01 (setting [16]) was not above 4.35; in the assay with HLA-A*23:01 (setting [16]), not above 4.11; in the assay with HLA-A*24:02 (setting [16]), not above 4.11; with HLA-A*26:01 (setting [16]), not above 4.11; in the assay with HLA-A*29:02 (setting [16]) it was not above 4.10; with HLA-A*30:02 (setting [16]), not above 4.11.

On to DEEGNLLDSY, for which the pKd with HLA-A*01:01 (setting [17]) is not above 4.03; with HLA-A*23:01 (setting [17]), not above 4.24; with HLA-A*24:02 (setting [17]), not above 4.15; in the assay with HLA-A*26:01 (setting [17]), not above 4.15; with HLA-A*29:02 (setting [17]), 5.14; with HLA-A*30:02 (setting [17]), 5.05.

As to LQFGFGWFSY, the pKd was not above 4.15 in the assay with HLA-A*01:01 (setting [18]); 6.33 in the assay with HLA-A*26:01 (setting [18]); 7.71 with HLA-A*29:02 (setting [18]); 5.28 with HLA-A*30:01 (setting [18]); 8.30 in the assay with HLA-A*30:02 (setting [18]); 8.14 in the assay with HLA-A*32:01 (setting [18]).

For the sequence HSYGIDLKSY, the pKd was 7.09 with HLA-A*01:01 (setting [17]); not above 4.15 with HLA-A*23:01 (setting [17]); not above 4.25 in the assay with HLA-A*24:02 (setting [17]); 6.35 in the assay with HLA-A*26:01 (setting [17]); 7.53 with HLA-A*29:02 (setting [17]); 8.15 with HLA-A*30:02 (setting [17]).
